According to paper PMC11352367 (Cells, 2024):

Target: the molecule itself
Assay: high-speed atomic force microscopy; α-actinin alone (50 nM) on bare mica, observation buffer, room temperature

B1: Rabbit skeletal muscle-derived α-actinin (natural protein)
chain: MNQIEPGVQYNYVYDEDEYMIQEEEWDRDLLLDPAWEKQQRKTFTAWCNSHLRKAGTQIENIEEDFRNGLKLMLLLEVISGERLPKPDRGKMRFHKIANVNKALDYIASKGVKLVSIGAEEIVDGNVKMTLGMIWTIILRFAIQDISVEETSAKEGLLLWCQRKTAPYRNVNIQNFHTSWKDGLGLCALIHRHRPDLIDYSKLNKDDPIGNINLAMEIAEKHLDIPKMLDAEDIVNTPKPDERAIMTYVSCFYHAFAGAEQAETAANRICKVLAVNQENERLMEEYERLASELLEWIRRTIPWLENRTPEKTMKAMQKKLEDFRDYRRKHKPPKVQEKCQLEINFNTLQTKLRISNRPAFMPSEGKMVSDAGAWQRLEQAEKGYEEWLLNEIRRLERLEHLAEKFRQKASTHETWAYGKEQILLQKDYESASLTEVRALLRKHEAFESDLAAHQDRVEQIAAIAQELNELDYHDAVNVNDRCQKICDQWDRLGTLTQKRREALERTEKLLETIDQLHLEFAKRAAPFNNWMEGAMEDLQDMFIVHSIEEIQSLITAHEQFKATLPEADGERQSIMAIQNEVEKVIQSYNIRISSSNPYSTVTMDELRAKWDKVKQLVPIRDQSLQEELARQHANERLRRQFAAQANAIGPWIQNKMEEIARSSIQITGALEDQMNQLKQYEHNIINYKNNIDKLEGDHQLIQEALVFDNKHTNYTMEHIRVGWELLLTTIARTINEVETQILTRDAKGITQEQMNEFRASFNHFDRRKNGLMDHEDFRACLISMGYDLGEAEFARIMTLVDPNGQGTVTFQSFIDFMTRETADTDTAEQVIASFRILASDKPYILAEELRRELPPDQAQYCIKRMPAYSGPGSVPGALDYTAFSSALYGESDL
stoichiometry N: 2
